# In article PMC3887213:
# Substitutions are numbered along the chain they refer to.
# B1: LRRK2 RocCOR tandem domain (LexA-BD bait, wild type) [human] / TUBB C terminus (Phe-317 to the stop codon), GAL4-AD prey [human] (parent)
# chain 1: KAVPYNRMKLMIVGNTGSGKTTLLQQLMKTKKSDLGMQSATVGIDVKDWPIQIRDKRKRDLVLNVWDFAGREEFYSTHPHFMTQRALYLAVYDLSKGQAEVDAMKPWLFNIKARASSSPVILVGTHLDVSDEKQRKACMSKITKELLNKRGFPAIRDYHFVNATEESDALAKLRKTIINESLNFKIRDQLVVGQLIPDCYVELEKIILSERKNVPIEFPVIDRKRLLQLVRENQLQLDENELPHAVHFLNESGVLLHFQDPALQLSDLYFVEPKWLCKIMAQILTVKVEGCPKHPKGIISRRDVEKFLSKKRKFPKNYMSQYFKLLEKFQIALPIGEEYLLVPSSLSDHRPVIELPHCENSEIIIRLYEMPYFPMGFWSRLINRLLEISPYMLSGRERALRPNRMYWRQGIYL
# chain 2: FRGRMSMKEVDEQMLNVQNKNSSYFVEWIPNNVKTAVCDIPPRGLKMAVTFIGNSTAIQELFKRISEQFTAMFRRKAFLHWYTGEGMDEMEFTEAESNMNDLVSEYQQYQDATAEEEEDFGEEAEEEA
# B2: LRRK2 RocCOR tandem domain (LexA-BD bait, wild type) [human] / TUBB4 C terminus (Phe-317 to Ala-444), GAL4-AD prey [human] (parent)
# chain 1: B1 chain 1
# chain 2: B1 chain 2 with N16S, N19S, V49A, E117G, D119F, F120E, G121E, E123A, A124E, E127V
# Variants of: B1
# Test: quantitative yeast two-hybrid (Q-YTH)
# Details: with TUBB C terminus (Phe-317 to the stop codon), n = 5, read off a plot
row,percent of parent,Variant
1,58%,chain 1 KAVPYNRMKLMIVGNDGSGKTTLLQQLMKTKKSDLGMQSATVGIDVKDWPIQIRDKRKRDLVLNVWDFAGREEFYSTHPHFMTQRALYLAVYDLSKGQAEVDAMKPWLFNIKARASSSPVILVGTHLDVSDEKQRKACMSKITKELLNKRGFPAIRDYHFVNATEESDALAKLRKTIINESLNFKIRDQLVVGQLIPDCYVELEKIILSERKNVPIEFPVIDRKRLLQLVRENQLQLDENELPHAVHFLNESGVLLHFQDPALQLSDLYFVEPKWLCKIMAQILTVKVEGCPKHPKGIISRRDVEKFLSKKRKFPKNYMSQYFKLLEKFQIALPIGEEYLLVPSSLSDHRPVIELPHCENSEIIIRLYEMPYFPMGFWSRLINRLLEISPYMLSGRERALRPNRMYWRQGIYL [chain 1 T16D]
2,130%,chain 1 KAVPYNRMKLMIVGNAGSGKTTLLQQLMKTKKSDLGMQSATVGIDVKDWPIQIRDKRKRDLVLNVWDFAGREEFYSTHPHFMTQRALYLAVYDLSKGQAEVDAMKPWLFNIKARASSSPVILVGTHLDVSDEKQRKACMSKITKELLNKRGFPAIRDYHFVNATEESDALAKLRKTIINESLNFKIRDQLVVGQLIPDCYVELEKIILSERKNVPIEFPVIDRKRLLQLVRENQLQLDENELPHAVHFLNESGVLLHFQDPALQLSDLYFVEPKWLCKIMAQILTVKVEGCPKHPKGIISRRDVEKFLSKKRKFPKNYMSQYFKLLEKFQIALPIGEEYLLVPSSLSDHRPVIELPHCENSEIIIRLYEMPYFPMGFWSRLINRLLEISPYMLSGRERALRPNRMYWRQGIYL [chain 1 T16A]
3,35%,chain 1 KAVPYNRMKLMIVGNTGSGKTTLLQQLMKTKKSDLGMQSATVGIDVKDWPIQIRDKRKRDLVLNVWDFAGREEFYSTHPHFMTQRALYLAVYDLSKGQAEVDAMKPWLFNIKARASSSPVILVGTHLDVSDEKQRKACMSKITKELLNKRGFPAIRDYHFVNADEESDALAKLRKTIINESLNFKIRDQLVVGQLIPDCYVELEKIILSERKNVPIEFPVIDRKRLLQLVRENQLQLDENELPHAVHFLNESGVLLHFQDPALQLSDLYFVEPKWLCKIMAQILTVKVEGCPKHPKGIISRRDVEKFLSKKRKFPKNYMSQYFKLLEKFQIALPIGEEYLLVPSSLSDHRPVIELPHCENSEIIIRLYEMPYFPMGFWSRLINRLLEISPYMLSGRERALRPNRMYWRQGIYL [chain 1 T164D]
4,97%,chain 1 KAVPYNRMKLMIVGNTGSGKTTLLQQLMKTKKSDLGMQSATVGIDVKDWPIQIRDKRKRDLVLNVWDFAGREEFYSTHPHFMTQRALYLAVYDLSKGQAEVDAMKPWLFNIKARASSSPVILVGTHLDVSDEKQRKACMSKITKELLNKRGFPAIRDYHFVNAAEESDALAKLRKTIINESLNFKIRDQLVVGQLIPDCYVELEKIILSERKNVPIEFPVIDRKRLLQLVRENQLQLDENELPHAVHFLNESGVLLHFQDPALQLSDLYFVEPKWLCKIMAQILTVKVEGCPKHPKGIISRRDVEKFLSKKRKFPKNYMSQYFKLLEKFQIALPIGEEYLLVPSSLSDHRPVIELPHCENSEIIIRLYEMPYFPMGFWSRLINRLLEISPYMLSGRERALRPNRMYWRQGIYL [chain 1 T164A]

# Variants of: B2
# Test: quantitative yeast two-hybrid (Q-YTH)
# Details: with TUBB4 C terminus (Phe-317 to Ala-444), n = 5, read off a plot
row,percent of parent,Variant
1,62%,chain 1 KAVPYNRMKLMIVGNDGSGKTTLLQQLMKTKKSDLGMQSATVGIDVKDWPIQIRDKRKRDLVLNVWDFAGREEFYSTHPHFMTQRALYLAVYDLSKGQAEVDAMKPWLFNIKARASSSPVILVGTHLDVSDEKQRKACMSKITKELLNKRGFPAIRDYHFVNATEESDALAKLRKTIINESLNFKIRDQLVVGQLIPDCYVELEKIILSERKNVPIEFPVIDRKRLLQLVRENQLQLDENELPHAVHFLNESGVLLHFQDPALQLSDLYFVEPKWLCKIMAQILTVKVEGCPKHPKGIISRRDVEKFLSKKRKFPKNYMSQYFKLLEKFQIALPIGEEYLLVPSSLSDHRPVIELPHCENSEIIIRLYEMPYFPMGFWSRLINRLLEISPYMLSGRERALRPNRMYWRQGIYL [chain 1 T16D]
2,115%,chain 1 KAVPYNRMKLMIVGNAGSGKTTLLQQLMKTKKSDLGMQSATVGIDVKDWPIQIRDKRKRDLVLNVWDFAGREEFYSTHPHFMTQRALYLAVYDLSKGQAEVDAMKPWLFNIKARASSSPVILVGTHLDVSDEKQRKACMSKITKELLNKRGFPAIRDYHFVNATEESDALAKLRKTIINESLNFKIRDQLVVGQLIPDCYVELEKIILSERKNVPIEFPVIDRKRLLQLVRENQLQLDENELPHAVHFLNESGVLLHFQDPALQLSDLYFVEPKWLCKIMAQILTVKVEGCPKHPKGIISRRDVEKFLSKKRKFPKNYMSQYFKLLEKFQIALPIGEEYLLVPSSLSDHRPVIELPHCENSEIIIRLYEMPYFPMGFWSRLINRLLEISPYMLSGRERALRPNRMYWRQGIYL [chain 1 T16A]
3,86%,chain 1 KAVPYNRMKLMIVGNTGSGKTTLLQQLMKTKKSDLGMQSATVGIDVKDWPIQIRDKRKRDLVLNVWDFAGREEFYSTHPHFMTQRALYLAVYDLSKGQAEVDAMKPWLFNIKARASSSPVILVGTHLDVSDEKQRKACMSKITKELLNKRGFPAIRDYHFVNAAEESDALAKLRKTIINESLNFKIRDQLVVGQLIPDCYVELEKIILSERKNVPIEFPVIDRKRLLQLVRENQLQLDENELPHAVHFLNESGVLLHFQDPALQLSDLYFVEPKWLCKIMAQILTVKVEGCPKHPKGIISRRDVEKFLSKKRKFPKNYMSQYFKLLEKFQIALPIGEEYLLVPSSLSDHRPVIELPHCENSEIIIRLYEMPYFPMGFWSRLINRLLEISPYMLSGRERALRPNRMYWRQGIYL [chain 1 T164A]
